pKd: −log10 of the molar value. Read-outs that look alike come from different tables or passages of the source. Ends that are not written are not given here.
Legend:
[1] = Solubility of peptides and protein fragments; format: physicochemical
[2] = biological target: T1, talin R8 domain (Mus musculus, UniProt P26039); experiment: 1H,15N-HSQC NMR titration of talin R8 with peptides; format: binding
T1 construct: conducted using 0.1 mM [^15N]talin R8 domain; hexa-histidine tag followed by TEV protease cleavage site (N, cleaved yes); made in house; host or cells: E. coli BL21 STAR (DE3)
T1 sequence (P26039 1461-1580 limits assumed): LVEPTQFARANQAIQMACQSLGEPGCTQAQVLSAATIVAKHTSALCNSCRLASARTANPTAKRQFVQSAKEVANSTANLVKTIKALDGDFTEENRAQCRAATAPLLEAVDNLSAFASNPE
Description: NMR spectra were collected on Bruker Avance III 600- and 800-MHz spectrometers equipped with CryoProbes. Experiments were performed at 298 K in 20 mM sodium phosphate (pH 6.5) and 50 mM NaCl with 5% (v/v) ^2H2O. Dissociation constants were evaluated from the ^1H,^15N-HSQC chemical-shift changes in the titration experiments conducted using 0.1 mM [^15N]talin R8 domain. Peptides were added from 5- to 10-mM stock solutions to generate titration points at peptide/protein ratios 0.1, 0.2, 0.5, 0.75, 1, 2, 4, and 8.
NMR Spectroscopy - Spectra were processed with TopSpin (Bruker) and analysed using CCPN Analysis (Vranken et al., 2005). […] The changes in chemical shift of 15N-talin R8 domain were calculated from 1H,15N-HSQC spectra as Δδ=√(ΔδH2+(ΔδN*0.15)2). The cross-peaks corresponding to the bound state were assigned by following chemical shift changes throughout the R8 titration with the increasing amount of peptides.
Dissociation constants were evaluated from the 1H,15N-HSQC chemical shift changes in the titration experiments conducted using 0.1 mM 15N-talin R8 domain. Peptides were added from 5-10 mM stock solutions to generate titration points at 0.1, 0.2, 0.5, 0.75, 1, 2, 4 and 8 peptide:protein ratios.
Concentrations of the DLC1 and RIAM peptides were determined from UV absorbance at 280 nm. […]
Concentration of the R8 domain that lacks UV-active aromatic residues was estimated from the comparison with the spectra of the R3 domain that has similar molecular weight and shape using the calibration procedure described in (Wider and Dreier, 2006). Dissociation constants were determined by fitting the chemical shift changes to the equation:
( ) ( ) [𝑃] + [𝐿] + 𝐾𝑑 − √([𝑃] + [𝐿] + 𝐾𝑑)2 − 4[𝑃][𝐿] where ∆(𝐻, 𝑁)0 is the weighted chemical shift difference at saturation, [P] and [L] are protein and ligand concentrations, respectively. Data were fitted independently for the well-resolved peaks and the average Kd was calculated from 3 different peaks with the lowest standard deviations of the fits. […]

For “DLC1(467–489): synthetic DLC1 peptide, residues 467–489; shorter fragment used for crystallization”, the solubility [1] was “less soluble than the longer fragment” and the “chemical-shift changes / broadening of talin R8 on peptide addition” value ([2]; 1H,15N-HSQC, talin R8, 298 K, pH 6.5, 4-fold excess of peptide (DLC1(467–489), paxillin LD1) or titration) was “large chemical-shift changes”.
“ENEDIFPELDDILYHVKGMQRIVNQWSEK [DLC1(461–489)]” showed a pKd ([2]; read-out: KD determined by fitting chemical-shift changes) of 4.32.
For MDDLDALLADLESTTS [paxillin LD1], the pKd [2] was 3.77.

Source: paper PMC4938799, “LD Motif Recognition by Talin: Structure of the Talin-DLC1 Complex” (Structure(London, England:1993), 2016)
